Measurements reported in patent US20250326807A1 (published 2025).
Where two headings read alike, the source gives them in different places. Ends that are not written are not given here.

Experiments:
[1] = target: T1, Recombinantly expressed fused calprotectin (His6-linker-S100A9-linker-S100A8), product code B-RCAL, BÜHLMANN … (human, UniProt P06702 1-114; P05109 1-93); experiment: fluorescence polarization
T1 chain: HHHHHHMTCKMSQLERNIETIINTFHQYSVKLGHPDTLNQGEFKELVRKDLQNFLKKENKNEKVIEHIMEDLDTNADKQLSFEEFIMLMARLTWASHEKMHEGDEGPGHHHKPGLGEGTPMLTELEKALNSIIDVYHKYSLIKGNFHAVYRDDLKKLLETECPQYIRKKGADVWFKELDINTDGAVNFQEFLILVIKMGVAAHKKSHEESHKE

[2] = target: T1, Recombinantly expressed fused …; experiment: fluorescence polarization
[3] = target: T1, Recombinantly expressed fused …; experiment: fluorescence polarization
[4] = target: T1, Recombinantly expressed fused …; experiment: fluorescence polarization
M10 β-Ala = experiment: SPR
Y16 D-Ala = experiment: SPR
F11 D-Ala = experiment: SPR
M10 D-Ala = experiment: SPR
P9 β-Ala = experiment: SPR
Q12 β-Ala = experiment: SPR
F11 β-Ala = experiment: SPR
P9 D-Ala = experiment: SPR
Y16 β-Ala = experiment: SPR
F8 β-Ala = experiment: SPR
Q12 D-Ala = experiment: SPR
F8 D-Ala = experiment: SPR
[5] = target: T1, Recombinantly expressed fused …; experiment: fluorescence polarization
[6] = target: T1, Recombinantly expressed fused …

B1: Peptide 3 (RCPECVAFPMFQCHWYCG), phage display derived, cross-linked between cysteines (peptide)
peptide: RCPECVAFPMFQCHWYCG
modifications: not fully specified; cysteines cross-linked by a chemical linker (linker and isomer not named); N-terminal 5(6)-carboxyfluorescein; synthesised on rink amide AM resin
Kd [1]: 23 nM

B2: TCPLNRTQCPLYACTTCP (peptide)
peptide: TCPLNRTQCPLYACTTCP
modifications: not fully specified; cross-linked between cysteines (linker not named); N-terminal 5(6)-carboxyfluorescein; synthesised on rink amide AM resin
Kd [2]: 34 nM

B3: GCDLAHQPCPLYKCTKCP (peptide)
peptide: GCDLAHQPCPLYKCTKCP
modifications: not fully specified; cross-linked between cysteines (linker not named); N-terminal 5(6)-carboxyfluorescein; synthesised on rink amide AM resin
Kd [3]: 10 nM

B4: VCQQTASRCPVWECQRCP (peptide)
peptide: VCQQTASRCPVWECQRCP
modifications: not fully specified; cross-linked between cysteines (linker not named); N-terminal 5(6)-carboxyfluorescein; synthesised on rink amide AM resin
Kd [2]: 55 nM

B5: VCPCPLFRAHGCSRFSCQ (peptide)
peptide: VCPCPLFRAHGCSRFSCQ
modifications: not fully specified; cross-linked between cysteines (linker not named); N-terminal 5(6)-carboxyfluorescein; synthesised on rink amide AM resin
Kd [4]: 22 nM

B6: calprotectin (other)
chain: HHHHHHMTCKMSQLERNIETIINTFHQYSVKLGHPDTLNQGEFKELVRKDLQNFLKKENKNEKVIEHIMEDLDTNADKQLSFEEFIMLMARLTWASHEKMHEGDEGPGHHHKPGLGEGTPMLTELEKALNSIIDVYHKYSLIKGNFHAVYRDDLKKLLETECPQYIRKKGADVWFKELDINTDGAVNFQEFLILVIKMGVAAHKKSHEESHKE
Kd (M10 β-Ala): > 10000 nM | Kd (Y16 D-Ala): > 10000 nM | Kd (F11 D-Ala): > 10000 nM | Kd (M10 D-Ala): > 10000 nM | Kd (P9 β-Ala): > 10000 nM | Kd (Q12 β-Ala): > 10000 nM | Kd (F11 β-Ala): > 10000 nM | Kd (P9 D-Ala): > 10000 nM | Kd (Y16 β-Ala): > 10000 nM | Kd (F8 β-Ala): > 10000 nM | Kd (Q12 D-Ala): > 10000 nM | Kd (F8 D-Ala): > 10000 nM

B7: SCQCPWDLFSQHSLSDCCD (peptide)
peptide: SCQCPWDLFSQHSLSDCCD
modifications: not fully specified; cross-linked between cysteines (linker not named); N-terminal 5(6)-carboxyfluorescein; synthesised on rink amide AM resin
Kd [3]: 25 nM

B8: ACRTCPLFTCPSCG (peptide)
peptide: ACRTCPLFTCPSCG
modifications: not fully specified; cross-linked between cysteines (linker not named); N-terminal 5(6)-carboxyfluorescein; synthesised on rink amide AM resin
Kd [5]: 89 nM

B9: CTQSPCPLYDSHQCSCK (peptide)
peptide: CTQSPCPLYDSHQCSCK
modifications: not fully specified; cross-linked between cysteines (linker not named); N-terminal 5(6)-carboxyfluorescein; synthesised on rink amide AM resin
Kd [4]: 38 nM

B10: Linear peptide 3 (RSPESVAFPMFQSHWYSG), all cysteines replaced by serines (peptide)
peptide: RSPESVAFPMFQSHWYSG-NH2
modifications: also: N-terminal 5(6)-carboxyfluorescein only in the fluorescence polarization assay version
Kd [6]: 25.5 nM
